Test results published in EP4671282A1 (Jiangsu Hengrui Pharmaceuticals Co., Ltd., dated 2025).
Read-outs that look alike come from different tables or passages of the source. Values belong to the binder of their own block, whether it stands above or below them.

Key:
[1] = target: T1, IL-36R on human skin squamous cell line A431 (human, UniProt Q9HB29 20-575); experiment: cell-based or functional assay
T1 sequence (looked up): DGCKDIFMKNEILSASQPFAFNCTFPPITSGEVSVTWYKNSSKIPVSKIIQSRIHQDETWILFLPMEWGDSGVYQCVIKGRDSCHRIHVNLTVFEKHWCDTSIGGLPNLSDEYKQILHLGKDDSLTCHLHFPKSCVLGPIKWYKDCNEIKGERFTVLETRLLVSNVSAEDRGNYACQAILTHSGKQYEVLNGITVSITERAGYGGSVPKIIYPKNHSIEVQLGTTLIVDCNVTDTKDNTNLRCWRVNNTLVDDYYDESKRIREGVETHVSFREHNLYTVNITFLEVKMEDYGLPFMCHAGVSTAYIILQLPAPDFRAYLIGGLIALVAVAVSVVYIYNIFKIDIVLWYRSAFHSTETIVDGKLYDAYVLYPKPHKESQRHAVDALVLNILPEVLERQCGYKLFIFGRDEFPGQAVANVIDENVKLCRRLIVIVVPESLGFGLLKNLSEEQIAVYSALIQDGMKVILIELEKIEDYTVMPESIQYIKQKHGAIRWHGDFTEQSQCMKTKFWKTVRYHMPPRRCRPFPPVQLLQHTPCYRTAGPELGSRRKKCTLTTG

[2] = target: T2, human IL-23 protein (ACROBiosystems, ILB-H52W5) (human, UniProt Q9NPF7 20-189; P29460 23-328); experiment: SPR (Biacore 8K), antibody captured by anti-human IgG Fc, IL-23 as analyte
T2 construct: Bought protein; construct not described; also called Human IL-23 antigen; human IL-23 antigen protein
T2 sequence (looked up) 1: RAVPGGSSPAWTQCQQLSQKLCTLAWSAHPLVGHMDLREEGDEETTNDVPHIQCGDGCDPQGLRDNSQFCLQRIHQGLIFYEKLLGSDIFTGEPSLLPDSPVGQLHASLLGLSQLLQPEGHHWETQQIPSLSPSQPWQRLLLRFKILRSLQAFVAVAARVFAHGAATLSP
T2 sequence (looked up) 2: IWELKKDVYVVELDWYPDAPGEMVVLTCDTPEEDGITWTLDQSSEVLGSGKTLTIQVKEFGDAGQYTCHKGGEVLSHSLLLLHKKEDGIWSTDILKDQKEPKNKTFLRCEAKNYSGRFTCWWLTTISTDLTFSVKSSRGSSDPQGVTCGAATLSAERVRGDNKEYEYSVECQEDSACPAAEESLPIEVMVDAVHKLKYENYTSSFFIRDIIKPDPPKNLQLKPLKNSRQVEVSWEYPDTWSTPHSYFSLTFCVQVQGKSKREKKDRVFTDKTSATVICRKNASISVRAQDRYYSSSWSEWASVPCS

[3] = target: T3, Human IL-36R protein (His + Avi Tag), Kactus IL1-HM4L2 (human, UniProt Q9HB29 20-335); experiment: SPR (Biacore 8K), antibody captured by anti-human IgG Fc, IL-36R as analyte
T3 construct: Bought protein; also called human IL-36R antigen protein; Human IL-36R antigen
T3 sequence: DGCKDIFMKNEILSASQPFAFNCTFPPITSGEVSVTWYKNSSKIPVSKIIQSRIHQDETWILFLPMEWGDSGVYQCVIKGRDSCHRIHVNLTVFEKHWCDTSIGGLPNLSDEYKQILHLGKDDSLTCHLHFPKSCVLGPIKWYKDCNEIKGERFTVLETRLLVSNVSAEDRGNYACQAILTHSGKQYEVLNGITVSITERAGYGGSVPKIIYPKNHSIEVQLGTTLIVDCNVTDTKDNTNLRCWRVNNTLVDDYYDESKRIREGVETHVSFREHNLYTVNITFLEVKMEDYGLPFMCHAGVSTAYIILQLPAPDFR

[4] = target: T2, human IL-23 protein (ACROBiosystems, …); experiment: ELISA, human IL-23 coated
[5] = target: T4, human IL-23 protein (Sino Biological, CT048-H08H) (human, UniProt Q9NPF7 20-189; P29460 23-328); experiment: SPR (Biacore 8K), antibody captured on Protein A chip, IL-23 as analyte
T4 construct: Detected with Anti-His-HRP in the ELISA, so it carries a His tag
T4 sequence (looked up) 1: T2 sequence (looked up) 1
T4 sequence (looked up) 2: T2 sequence (looked up) 2

[6] = target: T4, human IL-23 protein (Sino Biological, …); experiment: competition ELISA, IL-23R coated, biotinylated IL-23 preincubated with antibody
[7] = target: T4, human IL-23 protein (Sino Biological, …); experiment: cell-based or functional assay
[8] = target: T4, human IL-23 protein (Sino Biological, …); experiment: ELISA, test sample coated, His-tagged IL-23 in solution
[9] = target: T4, human IL-23 protein (Sino Biological, …); experiment: SPR (Biacore 8K), antibody captured on Protein A chip, IL-23 as analyte; remark: listed apart in the source
[10] = target: T5, IL-23 (R&D Systems, 1290-IL-010) (UniProt Q9NPF7 20-189; P29460 23-328); experiment: cell-based or functional assay
T5 sequence (looked up) 1: T2 sequence (looked up) 1
T5 sequence (looked up) 2: T2 sequence (looked up) 2

[11] = target: T1, IL-36R on human skin squamous cell line …; experiment: cell-based or functional assay; remark: listed apart in the source
[12] = target: T6, human IL-36R full-length protein stably expressed on CHO-K1 cells (human, UniProt Q9HB29 20-575); experiment: FACS, CHO-K1 cells overexpressing human IL-36R
T6 construct: FlpIn CHO-K1 line expressing the full-length protein; also called human IL-36R on the surface of CHO-K1 cells; CHO-K1 cells overexpressing human IL-36R
T6 sequence: T1 sequence (looked up)

[13] = target: T6, human IL-36R full-length protein stably …; experiment: FACS, CHO-K1 cells overexpressing human IL-36R; remark: listed apart in the source
[14] = target: T6, human IL-36R full-length protein stably …; experiment: FACS, CHO-K1 cells overexpressing human IL-36R; remark: listed apart in the source
[15] = target: T3, Human IL-36R protein (His + Avi Tag), …; experiment: SPR (Biacore 8K), antibody captured by anti-human IgG Fc, IL-36R as analyte; remark: listed apart in the source

IL-36α-induced A431 IL-8 secretion IC50 [1]: 0.29 nM
Kd [2]: 0.0517 nM
koff [2]: 4.93e-05 s⁻¹
kon [2]: 954000 M⁻¹ s⁻¹
Kd [3]: 4.28 nM
koff [3]: 0.000108 s⁻¹
kon [3]: 25300 M⁻¹ s⁻¹
B1: IL-36R-IL-23-03 (anti-IL-36R and anti-IL-23 bispecific antibody, VHH213_Hu07 on Hu29-19, Structure B) (bispecific antibody, human IgG1, kappa, L234A L235A)
heavy: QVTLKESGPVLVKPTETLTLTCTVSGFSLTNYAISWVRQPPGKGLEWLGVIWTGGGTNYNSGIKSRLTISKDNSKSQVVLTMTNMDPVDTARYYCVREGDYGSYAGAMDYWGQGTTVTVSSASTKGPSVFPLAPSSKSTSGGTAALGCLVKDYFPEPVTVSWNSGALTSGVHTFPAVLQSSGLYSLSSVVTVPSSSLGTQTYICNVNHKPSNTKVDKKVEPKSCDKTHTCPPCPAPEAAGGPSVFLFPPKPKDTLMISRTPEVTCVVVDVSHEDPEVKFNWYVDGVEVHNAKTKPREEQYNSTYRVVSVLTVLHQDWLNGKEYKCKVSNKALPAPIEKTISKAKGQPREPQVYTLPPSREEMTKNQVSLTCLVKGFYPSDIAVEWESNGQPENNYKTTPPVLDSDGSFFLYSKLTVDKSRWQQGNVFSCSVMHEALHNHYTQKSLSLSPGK
light: EVQLVESGGGLVQPGGSLRLSCAASGNTFSRYCMGWFRQAPGKELVGVAAIDSDGDTSYADSVEGRFTISRDNAKNTLYLQMNSLRAEDTAVYYCAADFTPSAPPRMGSGGYCFGDYWGQGTLVTVSSGGGGSGGGGSDIVLTQSPDSLAVSLGERATINCRASESVDYYGISSMHWFQQKPGQPPKLLIYRASNLESGIPARFSGSGSRTDFTLTISSLQAEDVAVYYCQQANKDPYTFGGGTKVEIKRTVAAPSVFIFPPSDEQLKSGTASVVCLLNNFYPREAKVQWKVDNALQSGNSQESVTEQDSKDSTYSLSSTLTLSKADYEKHKVYACEVTHQGLSSPVTKSFNRGEC
notes: VHH fused by a (G4S)2 linker to the N-terminus of the light chain; IgG1 L234A/L235A

EC50 [4]: 4.72 nM
Kd [5]: 0.0651 nM
koff [5]: 4.91e-05 s⁻¹
kon [5]: 754000 M⁻¹ s⁻¹
IC50 [6]: 0.61 nM
B2: Risankizumab (anti-IL-23 antibody control molecule) (antibody, human IgG1, kappa, L234A L235A, V domains shown)
VH: QVQLVQSGAEVKKPGSSVKVSCKASGYTFTDQTIHWMRQAPGQGLEWIGYIYPRDDSPKYNENFKGKVTITADKSTSTAYMELSSLRSEDTAVYYCAIPDRSGYAWFIYWGQGTLVTVSS
VL: DIQMTQSPSSLSASVGDRVTITCKASRDVAIAVAWYQQKPGKVPKLLIYWASTRHTGVPSRFSGSGSRTDFTLTISSLQPEDVADYFCHQYSSYPFTFGSGTKLEIKR

Activity in inhibiting proliferation of BaF3-IL-23R cells (IC50, nM) [7]: 0.175 nM
EC50 [8]: 1.16 nM
Kd [9]: 0.0207 nM
koff [9]: 8.4e-05 s⁻¹
kon [9]: 4.05e+06 M⁻¹ s⁻¹
IC50 [6]: 0.386 nM
B3: chimeric antibody Ch29 (antibody, human IgG1, kappa, L234A L235A, V domains shown)
VH: QVQLKESGPGLVAPSQSLSITCTVSGFSLTSYAISWVRQPPGKGLEWLGVIWTGGGTNYNSGIKSRLTISKDNSKSQVFLNMNSLQTEDTARYYCVREGDYGSYAGAMDYWGQGTSVTVSS
VL: DIVLTQSPASLAVSLGQRATISCRASESVDYYGISSMHWFQQKPGQPPKLLIYRASNLESGIPARFSGSGSRTDFTLTINRVETDDVATYYCQQANKDPYTFGGGTKLEIKR

IL-36α-induced A431 IL-8 secretion IC50 [1]: 0.34 nM
Kd [2]: 0.0702 nM
koff [2]: 6.02e-05 s⁻¹
kon [2]: 858000 M⁻¹ s⁻¹
Kd [3]: 17.7 nM
koff [3]: 0.000216 s⁻¹
kon [3]: 12200 M⁻¹ s⁻¹
B6: IL-36R-IL-23-04 (anti-IL-36R and anti-IL-23 bispecific antibody, VHH162_Hu11 on Hu29-19, Structure B) (bispecific antibody, human IgG1, kappa, L234A L235A)
heavy: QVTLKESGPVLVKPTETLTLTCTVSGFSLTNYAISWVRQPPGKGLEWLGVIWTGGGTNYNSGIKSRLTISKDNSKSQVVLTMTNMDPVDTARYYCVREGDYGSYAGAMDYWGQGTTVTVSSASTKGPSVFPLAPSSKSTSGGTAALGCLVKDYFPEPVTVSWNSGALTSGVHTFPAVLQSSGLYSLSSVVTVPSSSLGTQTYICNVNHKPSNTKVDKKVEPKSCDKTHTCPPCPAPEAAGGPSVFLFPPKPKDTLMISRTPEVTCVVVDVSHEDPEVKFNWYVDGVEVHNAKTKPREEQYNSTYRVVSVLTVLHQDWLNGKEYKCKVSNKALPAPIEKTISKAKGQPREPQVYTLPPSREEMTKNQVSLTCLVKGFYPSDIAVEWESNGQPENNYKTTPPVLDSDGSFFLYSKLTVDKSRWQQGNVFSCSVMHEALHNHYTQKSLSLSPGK
light: EVQLVESGGGLVQPGGSLRLSCAASGYSYRTQCLGWYRQAPGKQREAVATISGGGTSTYYSDSVKGRFTISQDNSKTTVYLQMNSLRAEDTAVYYCAKGLSVLGSWCHGGSSYEYTYSGQGTLVTVSSGGGGSGGGGSDIVLTQSPDSLAVSLGERATINCRASESVDYYGISSMHWFQQKPGQPPKLLIYRASNLESGIPARFSGSGSRTDFTLTISSLQAEDVAVYYCQQANKDPYTFGGGTKVEIKRTVAAPSVFIFPPSDEQLKSGTASVVCLLNNFYPREAKVQWKVDNALQSGNSQESVTEQDSKDSTYSLSSTLTLSKADYEKHKVYACEVTHQGLSSPVTKSFNRGEC
notes: as for B1

More lines, now with the values behind:

B4: Hu29-24 (humanized anti-IL-23 antibody) (antibody, human IgG1, kappa, L234A L235A)
heavy: not shown
light: DIVLTQSPDSLAVSLGQRATINCRASESVDYYGISSMHWFQQKPGQPPKLLIYRASNLESGIPARFSGSGSRTDFTLTISSLQAEDVAVYYCQQANKDPYTFGGGTKVEIKRTVAAPSVFIFPPSDEQLKSGTASVVCLLNNFYPREAKVQWKVDNALQSGNSQESVTEQDSKDSTYSLSSTLTLSKADYEKHKVYACEVTHQGLSSPVTKSFNRGEC
Activity in inhibiting proliferation of BaF3-IL-23R cells (IC50, nM) [7]: 0.178 nM
IC50 for inhibiting IL-17 secretion [10]: 0.0289 nM
EC50 [8]: 1.22 nM
Kd [5]: 0.0149 nM
IC50 [6]: 0.488 nM

B5: BI655130 (anti-human IL-36R antibody from Boehringer Ingelheim) (antibody, human IgG1, kappa, L234A L235A, V domains shown)
VH: QVQLVQSGAEVKKPGASVKVSCKASGYSFTSSWIHWVKQAPGQGLEWMGEINPGNVRTNYNENFRNKVTMTVDTSISTAYMELSRLRSDDTAVYYCTVVFYGEPYFPYWGQGTLVTVSS
VL: QIVLTQSPGTLSLSPGERATMTCTASSSVSSSYFHWYQQKPGQAPRLWIYRTSRLASGVPDRFSGSGSGTDFTLTISRLEPEDAATYYCHQFHRSPLTFGAGTKLEIKR
notes: Control, self-expressed according to WO2013074569A1; also called B1655130
IL-8 secretion (A431), IL-36α, IC50 [11]: 0.26 nM
IL-8 secretion (A431), IL-36β, IC50 [11]: 0.1 nM
IL-8 secretion (A431), IL-36γ, IC50 [11]: 0.04 nM
IL-36α-induced A431 IL-8 secretion IC50 [1]: 0.06 nM
EC50 [12]: 0.51 nM
Maximum MFI [12]: 13400 MFI
EC50 [13]: 0.51 nM
Maximum MFI [13]: 14200 MFI
EC50 [14]: 0.75 nM
Maximum MFI [14]: 12900 MFI
Kd [15]: 7.16 nM
koff [15]: 9.54e-05 s⁻¹
kon [15]: 13300 M⁻¹ s⁻¹

B7: H4H14706P2 (anti-human IL-36R antibody from Regeneron) (antibody, human IgG4 S228P, kappa, V domains shown)
VH: EVQLVESGGGLVQPGRSLRLSCTASGFTFDDYAIHWVRQSPGKGLEWVSVISWNSDVIGYADSVKGRFTISRDNAKNSLYLQMNSLRAEDTALYYCAKGYNWNFFDYWGQGTLVTVSS
VL: EIVLTQSPATLSLSPGERATLSCRASQSVSSYLAWYQQKPGQAPRLLIYNAANRATDIPARFSGSGSGTDFTLTISSLEPEDFAVYYCQQRSNWPLTFGGGTKVEIKR
notes: Control, self-expressed according to WO2020018503A2
IL-8 secretion (A431), IL-36α, IC50 [11]: 0.64 nM
IL-8 secretion (A431), IL-36β, IC50 [11]: 0.26 nM
IL-8 secretion (A431), IL-36γ, IC50 [11]: 0.06 nM
IL-36α-induced A431 IL-8 secretion IC50 [1]: 0.15 nM
EC50 [12]: 0.37 nM
Maximum MFI [12]: 10900 MFI
EC50 [13]: 0.51 nM
Maximum MFI [13]: 11200 MFI
EC50 [14]: 0.64 nM
Maximum MFI [14]: 10600 MFI
Kd [15]: 6.4 nM
koff [15]: 0.000364 s⁻¹
kon [15]: 56800 M⁻¹ s⁻¹
